In article PMC6274923, “Pinpointed Stimulation of EphA2 Receptors via DNA-Templated Oligovalence” (International Journal of Molecular Sciences, 2018):

B1: ephrin-A1: natural EphA2 protein ligand, molecular weight approx. 21 kDa (protein)
chain: DRHTVFWNSSNPKFRNEDYTIHVQLNDYVDIICPHYEDHSVADAAMEQYILYLVEHEEYQLCQPQSKDQVRWQCNRPSAKHGPEKLSEKFQRFTPFTLGKEFKEGHSYYYISKPIHQHEDRCLRLKVTVSGKITHSPQAHDNPQEKRLAADDPEVRVLHSIGHS
modifications: Limits are the mature chain without signal peptide and GPI propeptide, by convention; the approx. 21 kDa MW fits a non-Fc soluble form; Possible N-glycan at Asn

Molecular target: T1, EphA2 receptor (Homo sapiens, UniProt P29317)
T1 construct: PC-3 prostate cancer cells that overexpress the EphA2 receptor; endogenous in cells; host or cells: PC-3 cells (ATCC CRL-1435)
Assay: EphA2 phosphorylation assay (sandwich ELISA, DuoSet IC Human Phospho-EphA2 kit) in PC-3 cells
Format: cell-based

[1] = serum-starved PC-3 cells, 30 min at 37 °C, duplicates, sandwich ELISA, approximate EC50 from least-square fit (Equation 1), mean ± standard deviation, concentration of whole entity (DNA construct or peptide)

T1 sequence (P29317 24-976): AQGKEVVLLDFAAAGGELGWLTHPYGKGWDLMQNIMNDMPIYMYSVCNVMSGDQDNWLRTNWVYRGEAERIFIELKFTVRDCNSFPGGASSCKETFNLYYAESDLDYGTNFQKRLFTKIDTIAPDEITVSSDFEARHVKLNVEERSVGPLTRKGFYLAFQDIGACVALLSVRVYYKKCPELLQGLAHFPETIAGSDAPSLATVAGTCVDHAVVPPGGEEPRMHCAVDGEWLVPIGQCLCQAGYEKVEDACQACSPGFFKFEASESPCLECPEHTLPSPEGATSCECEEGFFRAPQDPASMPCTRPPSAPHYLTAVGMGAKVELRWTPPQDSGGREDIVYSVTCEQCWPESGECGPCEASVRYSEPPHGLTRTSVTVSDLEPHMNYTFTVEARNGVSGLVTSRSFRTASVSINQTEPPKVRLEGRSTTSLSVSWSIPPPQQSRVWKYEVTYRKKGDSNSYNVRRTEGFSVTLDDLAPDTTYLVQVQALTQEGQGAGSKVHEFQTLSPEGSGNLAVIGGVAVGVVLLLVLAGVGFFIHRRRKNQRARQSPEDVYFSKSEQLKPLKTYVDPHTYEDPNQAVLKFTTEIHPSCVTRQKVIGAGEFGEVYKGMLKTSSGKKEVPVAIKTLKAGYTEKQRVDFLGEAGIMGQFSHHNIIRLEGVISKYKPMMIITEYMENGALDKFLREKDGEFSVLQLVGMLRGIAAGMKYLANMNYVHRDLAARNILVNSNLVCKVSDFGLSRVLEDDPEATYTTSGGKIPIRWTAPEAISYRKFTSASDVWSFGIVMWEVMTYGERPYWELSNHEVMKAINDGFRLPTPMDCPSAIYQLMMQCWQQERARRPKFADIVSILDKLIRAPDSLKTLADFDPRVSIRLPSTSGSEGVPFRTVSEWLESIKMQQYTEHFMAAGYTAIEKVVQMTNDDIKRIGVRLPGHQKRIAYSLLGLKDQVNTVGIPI
Method: Serum-starved PC-3 cells were treated with different SWL-DNA trimer constructs (9 µM), monomeric SWL peptide (150 µM) and the natural ligand ephrin-A1 (1.5 µg/mL) in duplicates for 30 min at 37 °C. Cells were washed with 1× PBS twice and further treated according to the manufacturer’s instructions.
Serum-starved PC-3 cells were treated with different concentrations of constructs in duplicates for 30 min at 37 °C. Cells were washed with 1× PBS twice and further treated according to the manufacturer’s instructions. […] Standard deviation is presented as error bars. The x-axis indicates concentrations of the constructs in terms of DNA for 0xSWL-DNA trimer—3xSWL-DNA trimer and the concentration of the peptide for SWL.
Levels of EphA2 phosphorylation were determined using the DuoSet IC Human Phospho-EphA2 kit (R&D systems, Minneapolis, MN, USA) which is based on a sandwich ELISA. Briefly, 2 × 10^5 PC-3 cells were seeded three days before the assay for the comparison of ligands. For the concentration series used to determine EC50 values, 1 × 10^6 PC-3 cells were seeded into 12-well culture plates one day before the assay. On the day of the experiment, cells were serum-starved for 4 h and treated with either 1xSWL-DNA trimer, 2xSWL-DNA trimer, 3xSWL-DNA trimer, natural ligand ephrin-A1, SWL peptide, DNA trimer only or 1× PBS/10 mM MgCl2 as negative control for 30 min at 37 °C. Cells were lysed using 250 µL/well lysis buffer (according to kit) and assayed as indicated by manufacturer’s instructions. Manifold washing was conducted after every step and the whole procedure was executed at room temperature. In brief, 96-well ELISA plates carrying specific human EphA2 capture antibodies were incubated with cell lysates of afore treated PC-3 cells. This was followed by the addition of anti-phospho-tyrosine-HRP antibodies which ultimately fulfil a colorimetric reaction by conversion of 3,3′,5,5′-Tetramethylbenzidine substrate solution for 25 min (ligands in Figure 4a) or 8 min (ephrin-A1 in Figure A7). This reaction was stopped by adding 2 N H2SO4 and absorbance was measured at 450 nm and at 520 nm (infinite M1000, Tecan, Switzerland); the latter was subtracted as reference value. To normalize values from concentration series, controls (only 1× PBS/10 mM MgCl2) were subtracted, too. Data was analyzed by fitting to the equation: (1) A=Amin+(Amax−Amin)/1+(x/EC50)^−b where A is the observed absorbance, Amin and Amax are minimal and maximal absorbance respectively, and b is the Hill coefficient.

Row | Molecule | EC50 [1] [nM] | EC50 for EphA2 receptor phosphorylation (ephrin-A1 dose-response (Figure A7), PC-3 cells, 30 min at 37 °C, substrate reaction 8 min) [µg/mL] | EC50 (ephrin-A1 dose-response (Figure A7), PC-3 cells, conversion of the µg/mL value) [nM]
1 | CC(C)C[C@H](NC(=O)[C@H](Cc1c[nH]c2ccccc12)NC(=O)[C@@H](N)CO)C(=O)N[C@@H](C)C(=O)N[C@@H](Cc1ccc(O)cc1)C(=O)N1CCC[C@H]1C(=O)NCC(=O)N[C@@H](C)C(=O)N[C@H](C(=O)N[C@@H](CO)C(=O)N[C@@H](Cc1ccc(O)cc1)C(=O)N[C@@H](CCCNC(=N)N)C(=O)NCC(=O)NCC(=O)N[C@@H](CCCCN=[N+]=[N-])C(=O)O)C(C)C [SWL, reference compound] | 154000 ± 115000 |  | 
2 | B1 | 2.7 ± 0.5 | 0.0552 ± 0.0103 | 2.65
